Drawing on article PMC5518878, this text covers response for 3 substances.

The experiment has as its target Rhodopsin. As to the kind of experiment: Tango assay. The conditions noted are these: read off a plot.

For “human GRK1, full length, fused to the N-terminus of TEV protease (from UniProt Q15835) K46L”, the response reads like this: (ATR, parent: est. 0.39) 0.71; (vehicle, parent: est. 0.08) 0.18.

As for “human GRK1, full length, fused to the N-terminus of TEV protease (from UniProt Q15835) K46W”, the response was 0.77 (ATR, parent: est. 0.39) and 0.2 (vehicle, parent: est. 0.08).

On to “human GRK1, full length, fused to the N-terminus of TEV protease (from UniProt Q15835) K46Y”, for which the response reads like this: (ATR, parent: est. 0.39) 0.76; (vehicle, parent: est. 0.08) 0.17.
